Data published in paper PMC2275616.
Several values for one entry are separate records, joined by “and”; a condition that tells them apart may be missing. Equal entries are not always repeated.

Target: phosphocellulose-purified tubulin (bovine (endogenous in bovine brain)) (UniProt Q6B856)
Experiment: native gel or EMSA

phosphocellulose-purified tubulin (from UniProt Q6B856 1-445) (complex)
stoichiometry N: 4 and 6 and 8
